Experimental data as given in US6093692A, “Method and compositions for lipidization of hydrophilic molecules” (The University of Southern California, priority 1997, dated 2000).
Like-named read-outs stand apart in the source and are kept apart here.

B1: BBI: a hydrophilic protein which has low uptake into cells and is not orally bioavailable (protein, UniProt P01055 40-110, looked up)
Bowman-Birk type proteinase …: DDESSKPCCDQCACTKSNPPQCRCSDMRLNSCHSACKSCICALSYPAQCFCVDITDFCYEPCKPSEDDKEN
B2: BBIssOleic: the oleic acid conjugated BBI (conjugate, UniProt P01055 40-110, looked up)
Bowman-Birk type proteinase …: B1 Bowman-Birk type proteinase …
modifications: oleyl disulfide conjugate; 125I
notes: the oleic acid conjugated BBI

What was measured:
[1] = system: C3H 10T1/2(clone 8) cells; test: In vitro transformation assay (MCA-induced); type: cell-based; conditions: for Transformed foci / Fraction of dishes containing transformed foci / No. of dishes with transformed foci/No. of dishes: MCA 1 μg/ml 24 hr, conjugates 1.0 μg/ml first three weeks; for Fraction of dishes containing transformed foci / No. of dishes with transformed foci/No. of dishes: scored at six weeks
Protocol: Transformation assays were carried out using C3H 10T1/2(clone 8) cells according to the published recommendations [Reznikoff, C. A., et al., Cancer. Res., 33:3239-3249 (1973); Reznikoff, C. A., et al., Cancer. Res., 33:3231-3238 (1973)]. Stock cultures of mycoplasma-free cells were maintained by passing 50,000 cells per 75 cm^2 flask every seven days. Using this schedule, the cells were always passed approximately 2 days before reaching confluence. The stock culture was grown in Eagle's basal medium supplemented with 10% FBS, penicillin (100 units), and streptomycin (100 μg) and used for the transformation assays at passages of 9 to 14. The cells were passed by treating the stock cells with trypsin (0.1%) in PBS for 5 min and quenching the trypsin with 5 ml of the medium. This procedure was adapted to minimize spontaneous transformation in the stock cultures and maximize the plating efficiency in the petri dishes. The FBS stock used in the cultures was pre-screened to ensure that the serum was able to support the expression and the growth of the transformed cells.
For the transformation assays, C3H 10T1/2 cells (1000/dish) were seeded into 60 mm petri dishes and allowed to grow in a humidified 5% CO2 atmosphere in Eagle's basal medium, supplemented with 10% FBS, penicillin (100 units), and streptomycin (100 μg), for 24 hr. Subsequently, the cells were initiated by treatment with 25 μl of the 3-methylcholanthrene (MCA) in acetone stock solution ([…]) to a final concentration of 1 μg/ml of MCA (5 μg/5 ml). The cells were allowed to grow in the presence of the carcinogen or solvent for 24 hr, and the medium in each dish was then replaced with fresh medium containing no carcinogen or solvent. The medium in the dishes was replaced twice per week for the first two weeks of the assay, and thereafter once a week for the remainder four weeks of the assay. In the experiments designed to determine the transformation inhibitory activity of the conjugates, the cells were maintained in the medium containing the conjugates (1 μg/ml) for the first three weeks of the assay; thereafter, the cells were maintained in medium containing no added conjugates.
Six weeks after the carcinogen treatment, the cells were inspected under a microscope for adherence to the culture dishes and were washed with PBS and then fixed in 100% methanol. The fixed monolayers were then stained with Giemsa stain. Twenty dishes per group were treated in each experiment. In addition to the test groups, all the transformation assays contained at least three other groups: negative control (not treated with carcinogen or solvent), acetone control (treated with 25 μl of acetone), and positive control [treated with MCA (1 μg/ml) in 25 μl of acetone]. The transformed foci (>3 mm in diameter) in the plates were studied under a microscope and classified according to published guidelines as types I, II, or III [Landolph, J. R., Transfomatin assay of established cell lines: Mechanism and Application (ed. Kakunaga, T., and Yamasaki, H.) IARC Scientific Publications, Lyon, France pp. 185-201 (1985)]. Briefly, type III foci were dense, multilayered, basophilic, areas of cell growth which stained to a deep blue color with Giemsa and had rough crisscrossed edges. Type II foci were also dense, multilayered, areas of cell growth, but were stained to a purple color with Giemsa and had smoother, more defined edges compared to Type III foci. Type I foci were not scored in the assay.
BBI, either as the free protein or in conjugated form to palmitic or oleic acid, was added to the cultures at 1.0 μg/ml for the first three weeks of the transformation assay period starting immediately after the MCA treatment. MCA-treated cells were exposed to 3-methylcholanthrene, dissolved in 25 μl of acetone, at a concentration of 1 μg/ml for 24 hr. Acetone-treated cells were exposed to 25 μl of acetone for 24 hr only. […]

[2] = system: C3H 10T1/2 cells; test: Plating efficiency; type: cell-based
Protocol: The plating efficiency (PE) of the cells was also studied in conjunction with each of the transformation assays. To determine the PE of the cells in the different treatment groups, cells (200 cells/dish) were seeded into three 60-mm petri dishes per experiment group and treated in the identical manner as the transformation assay cells. The cells in these assays were terminated at 10 days, fixed with 100% methanol, and stained with giemsa; the colonies of 50 cells or more visible under a microscope were then counted. The plating efficiency is defined as the (number of colonies/number of cells seeded)×100%.

[3] = system: Caco-2 cells; type: cell-based, Human
Protocol: Human colon carcinoma cells (Caco-2) were detached from 25 cm^2 stock culture flasks using a 10 min incubation at 37° C. with 0.5 ml of a trypsin/EDTA solution (0.5% trypsin, 5.3 mM EDTA). The cells were then suspended in 5 ml of Dulbecco's minimum essential medium, supplemented with 15% fetal bovine serum (FBS), L-glutamine (1%), and essential amino acids (1%), and counted using a coulter counter.
Radioiodination of BBI and BBIssPal was carried out using the chloramine-T method [McConahey, P. C. and Dixon, F. J., Meth. Enzymol., 70:221-247 (1980)]. Confluent, 14-day old cell monolayers were washed once with, and then incubated in, serum-free Dulbecco medium at 37° C. for 30 min. Subsequently, the incubation medium was replaced with serum free medium containing ^125 I-BBI (10 μg/ml), either as native-BBI or as BBIssPal or BBIssOleic, and the monolayers were incubated for a further 60 min at 37° C. The monolayers were then washed three times with ice-cold PBS, and then exposed to trypsin (0.5%, EDTA 5.3 mM) for 10 min at 37° C. The detached cells were transferred to tubes, isolated by centrifugation, washed three times using ice-cold PBS, assayed for accumulated radioactivity using a gamma counter, and finally assayed for cell protein using the published method [Lowry, O. H., et al., J. Biol. Chem., 193:265-275 (1951)].
In some experiments the uptake of reduced ^125 I-BBIssPal into cells was determined. ^125 I-BBIssPal was reduced with DTT (50 mM) at 60° C. for 5 min followed by a further 25 min at 37° C. In control experiments, ^125 I-BBIssPal was exposed in medium to the same temperatures without being exposed to DTT.
The uptake of ^125 I-BBIssPal in the presence of BSA (fatty acid free) was determined as follows. ^125 I-BBIssPal was incubated with medium containing 0.1% BSA for 30 min at 37° C. before being added to the cell monolayers. In some uptake experiments, BSA was first mixed with a 3-fold molar excess of palmitic acid, and then incubated with the conjugates prior to the experiments. In the experiments where the uptake of ^125 I-BBIssPal was determined in medium containing FBS, the conjugates was simply added to the medium containing the required amount of FBS.
The cell monolayers were incubated with ^125 I-labeled conjugates at 10 μg/ml for 60 min at 37° C. The results presented are the average of three monolayers ±SEM. The uptake experiments were carried out in Dulbecco medium, in the presence and absence of added FBS.
The cell uptake of ^125 I-BBI, either as the native protein or as BBIssPal was determined before and after reduction with DTT (50 mM) for 5 min at 60° C. and 25 min at 37° C.
The uptake experiments were carried out in Dulbecco medium, in the presence and absence of added fatty acid-free BSA (BSA) or fatty acid-loaded BSA (BSA/FA). The results of studies of the uptake of ^125 I-BBI, either as the native-BBI or in conjugated form to palmitic or oleic acid, in Caco-2 cells in the presence of serum-free medium are presented in FIG. 1. The results are shown as the average ng of BBI internalized ±SEM, n=3. The uptake of ^125 I-BBIssPal into the cells was approximately 100-fold higher than that of ^125 I-BBI. […] The difference between the uptake of ^125 I-BBIssPal and ^125 I-BBIssOleic were significant.

[4] = parameters: species or system CF-1 mice; conditions: mouse, in vivo, iv, 3 mg/kg
Protocol: Female CF-1 mice, […], weighing 20-25 g each, with free access to food and water prior to the experiments, were used for the animal experiments. ^125 I-BBI (3 mg/kg), as native-BBI or as BBIssPal or BBIssOleic conjugate, was administered to the animals via the tail vein. At 0.5, 3, and 24 hr post-injection, 3 animals from each experiment group were sacrificed and their blood (200 μl), the kidneys, the lungs, and the liver were removed, rinsed in ice-cold PBS, and assayed for accumulated radioactivity. The weights of the organs were recorded and used to adjust the concentration of the conjugates in the organs.

| Molecule | Transformed foci [1] | Fraction of dishes containing transformed foci [1] | No. of dishes with transformed foci/No. of dishes [1] | Plating Efficiency ([2]; 200 cells/dish, 10 days, treated as in the transformation assay) [%] | Effect of fatty acid-loaded BSA on uptake [3] | Reduction of uptake after reduction with DTT [3] | Reduction of uptake by defatted-BSA [3] | Blood levels and removal from circulation [4] | Kidney accumulation [4] | Plating Efficiency [2] [%] | Uptake, fold higher than that of BBI [3] | Blood levels, fold higher than BBI [4] | Kidney clearance, fold lower than native-BBI [4] | Liver accumulation, fold higher than BBI [4] | Lung accumulation/levels, fold higher than BBI [4] | Retention in the liver [4] | Retention of anti-transformation activity of BBI ([1]; 1.0 μg/ml) |
| --- | --- | --- | --- | --- | --- | --- | --- | --- | --- | --- | --- | --- | --- | --- | --- | --- | --- |
| Cc1ccc2cc3c(ccc4ccccc43)c3c2c1CC3 [MCA, 3-methylcholanthrene, reference compound] | 6 out of the 19 dishes scored contained type III foci | 0.32 | 6/19 | 21 ± 3.0 |  |  |  |  |  |  |  |  |  |  |  |  |  |
| B1 | no transformed foci | 0 | 0/20 |  | not affected | did not cause a reduction in the uptake | not affected | rapidly excreted from the body without attaining high blood levels | rapidly accumulated in the kidneys | 24 ± 2.0 |  |  |  |  |  |  |  |
| B2 | no transformed foci | 0 | 0/20 |  |  |  |  | higher blood levels than BBI |  | 24 ± 3.5 | about 108 fold | about 4 fold | about 4 fold | about 4 fold | about 2 fold | significant levels of the conjugate present in the liver even at 24 hr post-injection | retained the original biological activity of BBI |
